Measured values as given in patent US20190040155A1 (AFFIMED, published 2019).

Tests used:
CD30 [1] = target: T1, CD30 (UniProt P28908 19-595, limits assumed); experiment: flow cytometry on KARPAS-299 cells, anti-His detection
T1 construct: whole, on cells; also called CD30 on CD19-/CD30+ KARPAS-299 cells
T1 sequence (looked up): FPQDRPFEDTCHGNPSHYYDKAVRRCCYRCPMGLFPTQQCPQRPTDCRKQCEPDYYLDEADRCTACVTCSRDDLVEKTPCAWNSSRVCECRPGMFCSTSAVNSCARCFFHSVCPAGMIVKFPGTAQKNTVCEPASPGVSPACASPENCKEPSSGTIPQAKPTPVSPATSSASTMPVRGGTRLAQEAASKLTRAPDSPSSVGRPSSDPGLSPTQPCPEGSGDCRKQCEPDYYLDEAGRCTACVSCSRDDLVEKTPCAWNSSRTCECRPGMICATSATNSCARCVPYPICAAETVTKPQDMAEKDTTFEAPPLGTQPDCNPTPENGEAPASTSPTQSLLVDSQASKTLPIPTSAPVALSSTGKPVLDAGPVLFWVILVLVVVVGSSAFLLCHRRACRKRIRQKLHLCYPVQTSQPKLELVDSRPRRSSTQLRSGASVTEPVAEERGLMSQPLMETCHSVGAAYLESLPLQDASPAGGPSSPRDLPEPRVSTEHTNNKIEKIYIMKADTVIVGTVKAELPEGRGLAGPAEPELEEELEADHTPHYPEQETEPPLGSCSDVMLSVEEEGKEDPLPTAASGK
Protocol: (§1) Single-positive CD19+/CD30− Raji and CD19-/CD30+ KARPAS-299 cells as well as double-positive CD19+/CD30+ MEC-1 were stained with serial dilutions of the trispecific antibody molecules and cell surface bound antibodies were detected by mAb anti-His followed by FITC-conjugated goat anti-mouse IgG. Mean fluorescence intensities determined by flow cytometry were used to calculate KD values by non-linear regression. KD values for trispecific antibody molecules were determined in two independent experiments. […]
(§2) After repeated washing with FACS buffer, cell-bound antibodies were detected with 10 μg/mL anti-His mAb 13/45/31-2 (Dianova, Hamburg, Germany, cat.: DIA910-1MG) followed by 15 μg/mL FITC-conjugated goat anti-mouse antibody (Dianova, cat.: 115-095-062). […] The fluorescence of 2-5×10³ living cells was measured using a Beckman-Coulter FC500 MPL flow cytometer using the MXP software (Beckman-Coulter, Krefeld, Germany) or a Millipore Guava EasyCyte flow cytometer (Merck Millipore, Schwalbach, Germany). Mean fluorescence intensities of the cell samples were calculated using CXP software (Beckman-Coulter) or Incyte software (Merck Millipore, Schwalbach, Germany). […]

CD16A (FcγRIIIA) = target: T2, CD16A (FcγRIIIA) (human, UniProt P08637 17-254); experiment: flow cytometry on primary NK cells
T2 construct: whole, on cells; also called CD16A on primary NK cells
T2 sequence (P08637 17-254): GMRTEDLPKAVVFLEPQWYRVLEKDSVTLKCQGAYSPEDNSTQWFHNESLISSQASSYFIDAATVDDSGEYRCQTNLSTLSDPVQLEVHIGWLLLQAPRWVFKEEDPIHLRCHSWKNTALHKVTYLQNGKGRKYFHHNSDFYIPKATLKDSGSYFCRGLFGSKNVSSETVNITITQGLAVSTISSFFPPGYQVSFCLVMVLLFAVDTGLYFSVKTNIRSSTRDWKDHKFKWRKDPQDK
Protocol: Aliquots of the indicated cell lines were incubated with […] of serial dilutions of His-tagged antibodies in FACS buffer (PBS, Invitrogen, cat.: 14190-169) containing 2% heat-inactivated FCS (Invitrogen, cat.: 10270-106), 0.1% sodium azide (Roth, Karlsruhe, Germany, cat.: A1430.0100) for 45 min on ice. Staining of NK-cells was performed in FACS buffer supplemented with 1 mg/mL polyclonal human antibody (Gammanorm, Octapharma, Langenfeld, Germany, cat.: PZN-2451445) to block binding of antibodies to Fc[…] receptors.
After repeated washing with FACS buffer, cell-bound antibodies were detected with 10 μg/mL anti-His mAb 13/45/31-2 (Dianova, Hamburg, Germany, cat.: DIA910-1MG) followed by 15 μg/mL FITC-conjugated goat anti-mouse antibody (Dianova, cat.: 115-095-062). The cells were then washed again and resuspended in 0.2 mL of FACS buffer containing 2 μg/mL propidium iodide (PI) (Sigma, cat.: P4170) in order to exclude dead cells. The fluorescence of 2-5×10³ living cells was measured using a Beckman-Coulter FC500 MPL flow cytometer using the MXP software (Beckman-Coulter, Krefeld, Germany) or a Millipore Guava EasyCyte flow cytometer (Merck Millipore, Schwalbach, Germany). Mean fluorescence intensities of the cell samples were calculated using CXP software (Beckman-Coulter) or Incyte software (Merck Millipore, Schwalbach, Germany). After subtracting the fluorescence intensity values of the cells stained with the secondary and tertiary reagents alone, the values were used for analysis using the GraphPad Prism (GraphPad Prism version 6.00 for Windows, GraphPad Software, La Jolla Calif. USA). For the calculation of KD, the equation for one-site-binding (hyperbolic) was used.

CD19 [2] = target: T3, CD19 (UniProt P15391 20-556, limits assumed); experiment: flow cytometry on Raji cells, anti-His detection
T3 construct: whole, on cells; Raji is a human cell line; also called CD19 on CD19+/CD30- Raji cells
T3 sequence (looked up): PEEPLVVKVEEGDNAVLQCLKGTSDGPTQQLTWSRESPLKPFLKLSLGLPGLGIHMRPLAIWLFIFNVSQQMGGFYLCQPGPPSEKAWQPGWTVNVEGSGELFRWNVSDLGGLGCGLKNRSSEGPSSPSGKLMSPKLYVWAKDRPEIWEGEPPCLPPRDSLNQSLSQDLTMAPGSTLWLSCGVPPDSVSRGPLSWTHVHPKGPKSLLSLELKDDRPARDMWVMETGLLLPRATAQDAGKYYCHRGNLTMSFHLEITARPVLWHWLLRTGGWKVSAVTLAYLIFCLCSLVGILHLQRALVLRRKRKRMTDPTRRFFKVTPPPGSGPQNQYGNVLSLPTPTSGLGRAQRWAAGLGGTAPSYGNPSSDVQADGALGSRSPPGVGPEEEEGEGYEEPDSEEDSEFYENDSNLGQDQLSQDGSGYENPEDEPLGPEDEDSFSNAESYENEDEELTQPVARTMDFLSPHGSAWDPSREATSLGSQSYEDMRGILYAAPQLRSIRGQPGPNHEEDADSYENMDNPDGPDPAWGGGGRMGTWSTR
Protocol: as §1, §2

CD30 [3] = target: T1, CD30; experiment: flow cytometry on Karpas-299 cells
Protocol: as §1, §2

CD19 [4] = target: T3, CD19; experiment: flow cytometry on Raji cells
Protocol: as §1, §2

Measured: binding result

B1: aTriFlex_101 (other)
chain 1: QVQLQQSGAELARPGASVKMSCKASGYTFTTYTIHWVRQRPGHDLEWIGYINPSSGYSDYNQNFKGKTTLTADKSSNTAYMQLNSLTSEDSAVYYCARRADYGNYEYTWFAYWGQGTTVTVSSGGSGGSGGSGGSGGSGGSDIVMTQSPKFMSTSVGDRVTVTCKASQNVGTNVAWFQQKPGQSPKVLIYSASYRYSGVPDRFTGSGSGTDFTLTISNVQSEDLAEYFCQQYHTYPLTFGGGTKLEINGGSGGSGGSQVQLVQSGAEVKKPGESLKVSCKASGYTFTSYYMHWVRQAPGQGLEWMGIINPSGGSTSYAQKFQGRVTMTRDTSTSTVYMELSSLRSEDTAVYYCARGSAYYYDFADYWGQGTLVTVSSGGSGGSGGSQVQLVQSGAEVKKPGESLKVSCKASGYTFTSYYMHWVRQAPGQGLEWMGIINPSGGSTSYAQKFQGRVTMTRDTSTSTVYMELSSLRSEDTAVYYCARGSAYYYDFADYWGQGTLVTVSSGGSGGSGGSSYVLTQPPSVSVAPGQTARITCGGNNIGSKTVHWYQQKPGQAPVLVVYDDSDRPSGIPERFSGSNSGNTATLTISRVEAGDEADYYCQVGTDWSDHLQVFGGGTKLTVLGGSGGSGGSGGSGGSGGSGGSEVQLVQSGAEVKKPGESLKISCKGSGYSFTSNWIGWVRQMPGKGLEWMGMIWPGDSDTMYSPSFQGQVTISADESINTAYLQWSSLKASDTAMYYCARRETTTVGRYYYAMDYWGQGTLVTVSSAAAGSHHHHHH
chain 2: SYVLTQPSSVSVAPGQTATISCGGHNIGSKNVHWYQQRPGQSPVLVIYQDNKRPSGIPERFSGSNSGNTATLTISGTQAMDEADYYCQVWDNYSVLFGGGTKLTVLGGSGGSGGSSYVLTQPSSVSVAPGQTATISCGGHNIGSKNVHWYQQRPGQSPVLVIYQDNKRPSGIPERFSGSNSGNTATLTISGTQAMDEADYYCQVWDNYSVLFGGGTKLTVLAAAGSDYKDDDDK
notes: Tetravalent, trispecific (CD30, CD19, CD16A) Fv antibody without constant domains; heterodimer of two non-covalently associated polypeptides; also called antibody molecule a); construct a)
binds: CD30 [1] | CD16A (FcγRIIIA) | CD19 [2]

B2: aTriFlex_102 (other)
chain 1: SYVLTQPPSVSVAPGQTARITCGGNNIGSKTVHWYQQKPGQAPVLVVYDDSDRPSGIPERFSGSNSGNTATLTISRVEAGDEADYYCQVGTDWSDHLQVFGGGTKLTVLGGSGGSGGSGGSGGSGGSGGSEVQLVQSGAEVKKPGESLKISCKGSGYSFTSNWIGWVRQMPGKGLEWMGMIWPGDSDTMYSPSFQGQVTISADESINTAYLQWSSLKASDTAMYYCARRETTTVGRYYYAMDYWGQGTLVTVSSGGSGGSGGSQVQLVQSGAEVKKPGESLKVSCKASGYTFTSYYMHWVRQAPGQGLEWMGIINPSGGSTSYAQKFQGRVTMTRDTSTSTVYMELSSLRSEDTAVYYCARGSAYYYDFADYWGQGTLVTVSSGGSGGSGGSQVQLVQSGAEVKKPGESLKVSCKASGYTFTSYYMHWVRQAPGQGLEWMGIINPSGGSTSYAQKFQGRVTMTRDTSTSTVYMELSSLRSEDTAVYYCARGSAYYYDFADYWGQGTLVTVSSGGSGGSGGSQVQLQQSGAELARPGASVKMSCKASGYTFTTYTIHWVRQRPGHDLEWIGYINPSSGYSDYNQNFKGKTTLTADKSSNTAYMQLNSLTSEDSAVYYCARRADYGNYEYTWFAYWGQGTTVTVSSGGSGGSGGSGGSGGSGGSDIVMTQSPKFMSTSVGDRVTVTCKASQNVGTNVAWFQQKPGQSPKVLIYSASYRYSGVPDRFTGSGSGTDFTLTISNVQSEDLAEYFCQQYHTYPLTFGGGTKLEINAAAGSHHHHHH
chain 2: B1 chain 2
notes: Tetravalent, trispecific (CD30, CD19, CD16A) Fv antibody without constant domains; heterodimer of two polypeptides; also called antibody molecule b); construct b)
binds: CD30 [1] | CD16A (FcγRIIIA) | CD19 [2]

B3: aTriFlex_104 (other)
chain 1: QVQLQQSGAELARPGASVKMSCKASGYTFTTYTIHWVRQRPGHDLEWIGYINPSSGYSDYNQNFKGKTTLTADKSSNTAYMQLNSLTSEDSAVYYCARRADYGNYEYTWFAYWGQGTTVTVSSGGSGGSGGSGGSGGSGGSDIVMTQSPKFMSTSVGDRVTVTCKASQNVGTNVAWFQQKPGQSPKVLIYSASYRYSGVPDRFTGSGSGTDFTLTISNVQSEDLAEYFCQQYHTYPLTFGGGTKLEINGGSGGSGGSSYVLTQPSSVSVAPGQTATISCGGHNIGSKNVHWYQQRPGQSPVLVIYQDNKRPSGIPERFSGSNSGNTATLTISGTQAMDEADYYCQVWDNYSVLFGGGTKLTVLGGSGGSGGSSYVLTQPSSVSVAPGQTATISCGGHNIGSKNVHWYQQRPGQSPVLVIYQDNKRPSGIPERFSGSNSGNTATLTISGTQAMDEADYYCQVWDNYSVLFGGGTKLTVLGGSGGSGGSSYVLTQPPSVSVAPGQTARITCGGNNIGSKTVHWYQQKPGQAPVLVVYDDSDRPSGIPERFSGSNSGNTATLTISRVEAGDEADYYCQVGTDWSDHLQVFGGGTKLTVLGGSGGSGGSGGSGGSGGSGGSEVQLVQSGAEVKKPGESLKISCKGSGYSFTSNWIGWVRQMPGKGLEWMGMIWPGDSDTMYSPSFQGQVTISADESINTAYLQWSSLKASDTAMYYCARRETTTVGRYYYAMDYWGQGTLVTVSSAAAGSDYKDDDDK
chain 2: QVQLVQSGAEVKKPGESLKVSCKASGYTFTSYYMHWVRQAPGQGLEWMGIINPSGGSTSYAQKFQGRVTMTRDTSTSTVYMELSSLRSEDTAVYYCARGSAYYYDFADYWGQGTLVTVSSGGSGGSGGSQVQLVQSGAEVKKPGESLKVSCKASGYTFTSYYMHWVRQAPGQGLEWMGIINPSGGSTSYAQKFQGRVTMTRDTSTSTVYMELSSLRSEDTAVYYCARGSAYYYDFADYWGQGTLVTVSSAAAGSHHHHHH
notes: Tetravalent, trispecific (CD30, CD19, CD16A) Fv antibody without constant domains; heterodimer of two polypeptides; also called antibody molecule d); construct d)
binds: CD16A (FcγRIIIA) | CD30 [3] | CD19 [4]
